The values below are quoted from earlier work in PMC3040723.

In this data set the target is IscU (Escherichia coli) (UniProt P0ACD4).
Chain of IscU (Escherichia coli) (P0ACD4 whole entry): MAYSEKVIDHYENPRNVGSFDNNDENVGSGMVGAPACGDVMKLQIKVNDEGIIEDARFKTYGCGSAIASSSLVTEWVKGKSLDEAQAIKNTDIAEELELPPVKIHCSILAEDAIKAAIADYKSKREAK

Chain of HscB (P0A6L9 whole entry): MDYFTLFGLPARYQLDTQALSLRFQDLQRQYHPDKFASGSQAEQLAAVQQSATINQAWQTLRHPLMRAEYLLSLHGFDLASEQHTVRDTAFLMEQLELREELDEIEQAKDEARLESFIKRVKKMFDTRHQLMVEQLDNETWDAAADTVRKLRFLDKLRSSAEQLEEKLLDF

As for HscB (from UniProt P0A6L9), the Kd was 13 µM.

The Kd is a measure of binding affinity in units of concentration.
